Experimental data from patent publication US11780927B2, “Anti-CD40 antibodies for use in prevention of graft rejection” (NOVARTIS AG, priority 2018, dated 2023).

Experiment: Plasma concentrations in solid organ transplantation patients
Format: in vivo, human
Protocol: Without wishing to be bound by theory, the inventors have identified that sustained plasma concentrations at least about 40 μg/mL of the CFZ533 antibody was necessary to block the CD40-CD40L pathway in target tissues in solid organ transplantation patients. Thus, with a dosing regimen providing, throughout the entire treatment period, sustained plasma concentrations of at least 40 μg/mL and up to 400 μg/mL, in situations where CD40 expression in affected tissues would be enhanced (severity of the condition, activation of the immune system post transplantation), is considered for a therapeutic effect.

CFZ533: human anti-CD40 IgG1 monoclonal antibody with Fc-silencing N297A mutation; heavy chain SEQ ID NO: 9, light chain SEQ ID NO: 10
Safety and tolerability at maximum plasma concentration (about 400 μg/ml at steady state): generally safe and well tolerated | Thromboembolic events (human, in vivo): No thromboembolic events were observed | observed maximum plasma concentration at steady state (human, in vivo): about 400 μg/ml | sustained plasma concentration necessary to block the CD40-CD40L pathway in target tissues (solid organ transplantation patients): at least 40 μg/mL
